Test results published in patent publication US20200377588A1, “Highly Versatile Method of Presenting Cyclic Peptide on Protein Structure” (The University of Tokyo, priority 2017, published 2020).

What was measured:
Plexin B1-PA = molecular target: T1, Plexin B1-PA (Homo sapiens, UniProt O43157); assay: pull-down type binding experiment, Plexin B1-PA captured on NZ-1 Sepharose, SDS-PAGE
T1 construct: made in house; host or cells: Expi293F cells (secreted, culture supernatant)
T1 sequence (O43157 20-1490 limits assumed): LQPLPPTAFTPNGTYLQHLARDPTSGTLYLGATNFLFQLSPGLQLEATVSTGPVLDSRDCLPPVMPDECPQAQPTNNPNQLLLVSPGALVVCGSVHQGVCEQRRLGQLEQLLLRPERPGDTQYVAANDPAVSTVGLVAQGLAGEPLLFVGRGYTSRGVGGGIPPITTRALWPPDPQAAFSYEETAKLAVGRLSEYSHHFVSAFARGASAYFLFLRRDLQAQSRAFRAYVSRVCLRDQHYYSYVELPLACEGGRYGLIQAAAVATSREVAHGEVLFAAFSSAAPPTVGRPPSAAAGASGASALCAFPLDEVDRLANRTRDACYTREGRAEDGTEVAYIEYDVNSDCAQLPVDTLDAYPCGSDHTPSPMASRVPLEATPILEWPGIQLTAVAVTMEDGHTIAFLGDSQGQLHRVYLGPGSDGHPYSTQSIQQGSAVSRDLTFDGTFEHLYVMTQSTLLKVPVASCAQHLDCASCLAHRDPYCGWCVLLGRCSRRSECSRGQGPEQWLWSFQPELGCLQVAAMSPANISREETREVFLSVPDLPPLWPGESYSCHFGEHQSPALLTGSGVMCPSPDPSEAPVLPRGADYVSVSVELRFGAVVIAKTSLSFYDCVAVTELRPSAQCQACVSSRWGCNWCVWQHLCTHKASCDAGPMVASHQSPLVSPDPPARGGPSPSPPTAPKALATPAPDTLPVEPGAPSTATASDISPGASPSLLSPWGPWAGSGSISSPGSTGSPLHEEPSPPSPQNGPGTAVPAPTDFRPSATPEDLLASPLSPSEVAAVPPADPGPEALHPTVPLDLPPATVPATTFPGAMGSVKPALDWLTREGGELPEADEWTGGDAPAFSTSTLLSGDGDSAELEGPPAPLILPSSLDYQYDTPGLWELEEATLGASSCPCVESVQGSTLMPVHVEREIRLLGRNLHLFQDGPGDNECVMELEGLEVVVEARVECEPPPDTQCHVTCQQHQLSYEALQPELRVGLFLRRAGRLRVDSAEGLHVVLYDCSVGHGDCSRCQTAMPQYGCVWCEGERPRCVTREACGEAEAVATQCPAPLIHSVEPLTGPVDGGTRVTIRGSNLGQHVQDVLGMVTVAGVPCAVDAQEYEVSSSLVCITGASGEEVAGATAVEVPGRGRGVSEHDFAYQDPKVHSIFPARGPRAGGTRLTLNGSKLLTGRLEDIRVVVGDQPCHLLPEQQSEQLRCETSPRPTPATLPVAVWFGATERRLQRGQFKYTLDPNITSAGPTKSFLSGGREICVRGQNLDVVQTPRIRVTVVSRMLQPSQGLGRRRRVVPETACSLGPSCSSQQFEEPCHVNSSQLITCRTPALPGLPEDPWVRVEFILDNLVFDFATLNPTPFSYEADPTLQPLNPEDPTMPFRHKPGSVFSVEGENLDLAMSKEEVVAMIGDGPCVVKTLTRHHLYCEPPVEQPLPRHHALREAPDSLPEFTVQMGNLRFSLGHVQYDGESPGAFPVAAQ
Protocol: (§1) A pull-down type binding experiment was performed to study whether or not Fn10-Fc having various cyclic peptides fused therein retained its binding ability, which the cyclic peptides had before fusion, to binding molecules. In accordance with the method described in Protein Exp. Purification, 2014, 95, 240-247, respective constructs encoding fusion proteins having a PA tag (product of Wako Pure Chemical Industries) added to the C terminus of an extracellular region of four binding molecules (each, single-pass membrane receptor) were created and the resulting constructs were each incorporated in an expression vector pcDNA3.1 (product of Thermo Fisher Scientific). After transient expression in Expi293F cells by the above-described method while using the vector, respective culture supernatants containing Plexin B1-PA, Met-PA, EGFR-PA, and TrkB-PA, which were soluble receptor fragments, were prepared.
(§2) To 0.5 mL of the culture supernatant containing the PA-tag added receptor extracellular region, 30 μL of Sepharose (product of Wako Pure Chemical Industries) on which NZ-1, an anti-PA tag antibody, was immobilized and the resulting mixture was mixed by rotation for 2 hours to capture the binding molecule on Sepharose. […]

Met-PA = molecular target: T2, Met-PA (Homo sapiens, UniProt P08581); assay: pull-down type binding experiment, Met-PA captured on NZ-1 Sepharose, SDS-PAGE; details: Example 1, Fn10-Fc mutants, culture supernatant, FIG. 5
T2 construct: made in house; host or cells: Expi293F cells (secreted, culture supernatant)

EGFR-PA = molecular target: T3, EGFR-PA (Homo sapiens, UniProt P00533); assay: pull-down type binding experiment, EGFR-PA captured on NZ-1 Sepharose, SDS-PAGE; details: Example 1, Fn10-Fc mutants, culture supernatant, FIG. 5
T3 construct: made in house; host or cells: Expi293F cells (secreted, culture supernatant)
Protocol: as §1, §2

TrkB-PA = molecular target: T4, TrkB-PA (Homo sapiens, UniProt Q16620); assay: pull-down type binding experiment, TrkB-PA captured on NZ-1 Sepharose, SDS-PAGE; details: Example 1, Fn10-Fc mutants, culture supernatant, FIG. 5
T4 construct: made in house; host or cells: Expi293F cells (secreted, culture supernatant)
Protocol: as §1, §2

Plexin B1-Fc = molecular target: T5, Plexin B1-Fc (Homo sapiens, UniProt O43157); assay: pulldown, Plexin B1-Fc captured on protein A-Sepharose, SDS-PAGE; format: binding; details: Example 7, PLAP mutants, FIG. 27
T5 construct: Protein A Sepharose that had captured a soluble receptor fragment Plexin B1-Fc therein
T5 sequence (O43157 20-1490 limits assumed): T1 sequence (O43157 20-1490 limits assumed)
Text: It is to be noted, however, that for the mP6-9 peptide fusion protein, not Plexin B1-PA but Plexin B1-Fc protein was used as a binding molecule and as pulldown beads, not NZ-1-Sepharose but protein A-Sepharose was used.

Met-Fc = molecular target: T6, Met-Fc (Homo sapiens, UniProt P08581); assay: pulldown, Met-Fc captured on Protein A Sepharose, SDS-PAGE; format: binding; details: Example 7, PLAP mutants, FIG. 27
T6 construct: captured a soluble receptor fragment Plexin B1-Fc or Met-Fc therein
Text: Binding of the resulting cyclic peptide fusion protein (PLAP mutant) to Protein A Sepharose that had captured a soluble receptor fragment Plexin B1-Fc or Met-Fc therein by the method described above I Example 1 was studied by the pulldown method.

T2 sequence (P08581 25-932 limits assumed): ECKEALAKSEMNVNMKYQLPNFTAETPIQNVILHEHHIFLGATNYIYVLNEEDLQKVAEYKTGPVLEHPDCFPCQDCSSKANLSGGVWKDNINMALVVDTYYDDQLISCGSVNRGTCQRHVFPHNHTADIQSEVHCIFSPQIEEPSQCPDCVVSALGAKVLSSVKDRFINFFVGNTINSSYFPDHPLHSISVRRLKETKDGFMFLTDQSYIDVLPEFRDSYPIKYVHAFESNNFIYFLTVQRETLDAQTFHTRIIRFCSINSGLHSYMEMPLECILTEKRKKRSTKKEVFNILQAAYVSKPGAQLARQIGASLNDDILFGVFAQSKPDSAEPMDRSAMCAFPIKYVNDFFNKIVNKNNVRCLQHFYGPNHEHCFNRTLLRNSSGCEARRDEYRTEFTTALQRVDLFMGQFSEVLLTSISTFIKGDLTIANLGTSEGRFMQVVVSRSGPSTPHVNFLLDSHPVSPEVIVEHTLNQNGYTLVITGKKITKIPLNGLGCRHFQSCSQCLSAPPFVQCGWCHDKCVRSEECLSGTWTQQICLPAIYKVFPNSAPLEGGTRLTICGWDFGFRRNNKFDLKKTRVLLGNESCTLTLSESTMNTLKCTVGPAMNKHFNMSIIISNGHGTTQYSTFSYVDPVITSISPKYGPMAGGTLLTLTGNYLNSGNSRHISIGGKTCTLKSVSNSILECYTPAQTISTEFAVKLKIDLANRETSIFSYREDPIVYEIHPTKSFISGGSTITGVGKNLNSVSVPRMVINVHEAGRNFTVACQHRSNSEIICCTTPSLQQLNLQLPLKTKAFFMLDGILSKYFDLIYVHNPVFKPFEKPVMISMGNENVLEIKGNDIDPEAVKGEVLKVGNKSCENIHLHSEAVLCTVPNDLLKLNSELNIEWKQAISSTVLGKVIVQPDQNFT
T6 sequence (P08581 25-932 limits assumed): as above

Fn10-Fc: tenth Type III repeat domain of human fibronectin (residues 1418 to 1509) fused to human IgG1 Fc, no peptide inserted; control
binding to Plexin B1-PA (pulldown) (Plexin B1-PA; Example 1, Fn10-Fc mutants, culture supernatant, FIG. 5): did not show a binding property
binding to Met-PA (pulldown) (Met-PA): did not show a binding property
binding to EGFR-PA (pulldown) (EGFR-PA): did not show a binding property
binding to TrkB-PA (pulldown) (TrkB-PA): did not show a binding property

hGH: full-length human growth hormone with Hisx8 tag and TEV site, no cyclic peptide fused; control
binding to Plexin B1-PA (pulldown) (Plexin B1-PA; Example 5, hGH mutants, FIG. 20B): does not bind to Plexin B1-PA

B1: PLAP: full-length human placental alkaline phosphatase with Myc and Hisx6 tags, no cyclic peptide fused; control (protein, UniProt P05187 1-535, looked up)
chain: MLGPCMLLLLLLLGLRLQLSLGIIPVEEENPDFWNREAAEALGAAKKLQPAQTAAKNLIIFLGDGMGVSTVTAARILKGQKKDKLGPEIPLAMDRFPYVALSKTYNVDKHVPDSGATATAYLCGVKGNFQTIGLSAAARFNQCNTTRGNEVISVMNRAKKAGKSVGVVTTTRVQHASPAGTYAHTVNRNWYSDADVPASARQEGCQDIATQLISNMDIDVILGGGRKYMFRMGTPDPEYPDDYSQGGTRLDGKNLVQEWLAKRQGARYVWNRTELMQASLDPSVTHLMGLFEPGDMKYEIHRDSTLDPSLMEMTEAALRLLSRNPRGFFLFVEGGRIDHGHHESRAYRALTETIMFDDAIERAGQLTSEEDTLSLVTADHSHVFSFGGYPLRGSSIFGLAPGKARDRKAYTVLLYGNGPGYVLKDGARPDVTESESGSPEYRQQSAVPLDEETHAGEDVAVFARGPQAHLVHGVQEQTFIAHVMAFAACLEPYTACDLAPPAGTTDAAHPGRSVVPALLPLLAGTLLLLETATAP
modifications: full-length Myc and His6 tags
notes: full-length human placental alkaline phosphatase with Myc and Hisx6 tags, no cyclic peptide fused; control
binding to Plexin B1-Fc (pulldown) (Plexin B1-Fc): does not bind
binding to Met-Fc (pulldown) (Met-Fc): does not bind
